# Measured values taken from the DeepSol protein solubility set.
# Assay: soluble on expression in E. coli; label from the status in PepcDB or PDB records
row,Sequence,soluble on expression in E. coli
1,GSTDSLPGKFEDMYKLTSELLGEGAYAKVQGAVSLQNGKEYAVKIIEKQAGHSRSRVFREVETLYQCQGNKNILELIEFFEDDTRFYLVFEKLQGGSILAHIQKQKHFNEREASRVVRDVAAALDFLHTKGIAHRDLKPENILCESPEKVSPVKICDFDLGSGMKLNNSCTPITTPELTTPCGSAEYMAPEVVEVFTDQATFYDKRCDLWSLGVVLYIMLSGYPPFVGHCGADCGWDRGEVCRVCQNKLFESIQEGKYEFPDKDWAHISSEAKDLISKLLVRDAKQRLSAAQVLQHPWVQGQAPEKG,soluble
2,MTEMKILIVTLTYIEKSIIDEIVNNLSSYGLEVDILLDSRKYLPISAFNWERLQYDAEKVLSFLKSIHDFNYDSIIFLADSDGYIDGYNFVFGLTIDNFAIIFLHRLREEFYNRKPDLDLFMKRVVKEVTHEVGHTLGLSHCNTTGCVMNFSNSVEDVDKKQAKFCKNCAHKIEKLSKYLQQKLEHHHHHH,not soluble
3,DLADRFAELERRYDARLGVYVPATGTTAAIEYRADERFAFCSTFKAPLVAAVLHQNPLTHLDKLITYTSDDIRSISPVAQQHVQTGMTIGQLCDAAIRYSDGTAANLLLADLGGPGGGTAAFTGYLRSLGDTVSRLDAEEPELNRDPPGDERDTTTPHAIALVLQQLVLGNALPPDKRALLTDWMARNTTGAKRIRAGFPADWKVIDKTGTGDYGRANDIAVVWSPTGVPYVVAVMSDRAGGGYDAEPREALLAEAATCVAGVLA,soluble
4,MARTDIRPIVKLRSTAGTGYTYTTRKNRRNDPDRLILRKYDPILRRHVDFREER,soluble
5,MFALHRHFPNPLPSNPSISRHEQKVADHLASIIKESYYGDTSVEESEYLVQEEYGDWEPEVFEPYDCVLPDQDDVLFGEKAVSREELDKAITFYRSGKIGSRPITTMHHSYRWIRTDAHMNKLRKYEKDKKAFQENVRVRLAQLTQRLYEEVKEKLDNGVNLHDSDLMAMALEINTREMKLQNFKASQSWITRWKQSHRIVSRRVTKFVTRKCLINKDAIKKNADDFVKNARTEISNYHPSMVFNCDQTGIQKELYPARSLAFMGEKTVERLAQSKSSLTHSFTFLPMIFLDGSMGPKAFMVIAEPKGQFPPSRPIPNCPNLEVRAGYKTHIMTKQLMCDFFESCVFIPSVPKKLYIMLDSWPAFKDHTTIKNLVPNGHDVVIRNIPEHTTGMIQPLDVYWNAPWKSLIKKFTAYALRTQTDYVIAQRNNAICMVSVLYHQISAEHFRPFLQHCWKKAGYVGAANTSSTPFLTPAQYCIDHGDTVICYHTGCNHLGFIRCARCKIFPARTGKNFSHILIVENVSFPIQYFFLNIAPFILVIP,not soluble
6,MLKGKYTKIEKVNGVEREYLITDKYGITIGRIFIVDLNKDNRFCMFRMKIYKQGKSINTYIKEILSVFMEFLFKSNDINKVNIIVDEEVSTQPFVELGFAFEGIINKSIIEKNVLKDEFLFGMDYKNYNSDRINVFKLYGKSITLKVLTPEDAENMLQYYIKNKEHLKPFEPEREESFYTFEAQKQMLIENYKQFINGEGTNFGIYKDAKLIGKIQISGTIYGVFKSAIIGYSIDKDYQGKGYMKDALRVAEAYAFNVMNLHRIEASALVDNLRSQNVLIGCGFEKLGINKNYLFINGRWQDHITFYKTNNN,not soluble
7,MVGRRDGPFKPPGGLLRAFLVRVDAGHLRTVSYSTVLASTSAHSSALPPRRSPPMNAPAKSLLDIDAFPLVQVREMPRELADVERWLEEVEALLAVERDFALVYPPLPQETAEGDQQARKRLVLWLKENRQRFVEHCRGILLSANGQPDNLADLQQLAPVLQAVYGPPVSVAPDLASARGMAKALLSGPATGMNW,not soluble
8,SLSKKSVQTLEDIARLANVSRSTVSRALNNSPLISKQTRERIQAIAREHNFCLNVSGRNLRLRSSRTIAFVAPMCFPPVASAEHLFGLEMLGAIWSGLHELNYDCLIVHSASQDTDWVHRYLHSGRVDGFILMESSFKQTQIEALVQMKVPFIVWGMPVSPFNYCSVTGDNVAGGRLATEYLIRTGRQRIAFLGGLKGTLTVENRFKGYEQALQLAGRALDPALIVYGDYTYASGAAGMQRLLERAPDLDAVFVNSDLMAIAAINVIQESGRSVPADIAVVGYDDLSIAGYATLPLTTIRQNIPLAGKLLAQNLIQHIETGLVTNVTVPVELVIRKSEG,not soluble
9,MGHHHHHHSHMAMRQTPLTCSGHTRPVVDLAFSGITPYGYFLISACKDGKPMLRQGDTGDWIGTFLGHKGAVWGATLNKDATKAATAAADFTAKVWDAVSGDELMTLAHKHIVKTVDFTQDSNYLLTGGQDKLLRIYDLNKPEAEPKEISGHTSGIKKALWCSEDKQILSADDKTVRLWDHATMTEVKSLNFNMSVSSMEYIPEGEILVITYGRSIAFHSAVSLDPIKSFEAPATINSASLHPEKEFLVAGGEDFKLYKYDYNSGEELESYKGHFGPIHCVRFSPDGELYASGSEDGTLRLWQTVVGKTYGLWKCVLPEEDSGELAKPK,not soluble
10,HNPLYTAHELESPFQDHGARVAIVWDKAADTLEKLRRNTPLETIVSVNMMTAMPAVQQALLRLPIPMIRKKRDALTASAPNTIPWEILVGSALGGNGDDIVPCPEVTKKSIALILYTSGTTGTPKGAQLSHGNLFANIMQGKAWVKGIGDQDER,not soluble
11,MGSDKIHHHHHHMNLDHLRYFVALSRTENYTQTAKLLHITQPSLTKAIHSLEAELNIDLFQKAGRSVTLTPAGKVFASDVESALLLLDKSVTNIKRFDQQKAPIRIAALRTLSIKWLPDIAQRFLQLSPHAAVQFQFNTDTGLSPDILNGLRNNKYDVAFCSKMDHFSDIEFFPVAEQTMVCITPTTHPLANRSSINLAETLAYPQITFSQRSGLHPIMQKLFNDCGGQPISAYAVEEDQAIAGLVASGFGIAVVPNMSILQTMPVKIIPLSFPTWQRILYMGTLKHRTPQPAVEEFITFVRDQSKTLSVNNI,not soluble
12,MAHHHHHHMILPRYAYAHADMDQKQMQKLLLMGPGGAGKTCMRSIIFDNYLPRDALRLGITISLDQSQVHILRNLFLNLWDCGGQHRYVTEYLNRQKEYIFRYVGVMLFVFDINSMCRDSHGGIGGLGGVGGESSSATTDWKLPEMLEYFREAMRFIRQYSPKAKVFVLLHKIDLIHKDIREEIFQARKQEILNCIDSDNGMNIEFFGTSIWSDSLYLAYSSVVRSLVPHRDVLVEMMRGIAMACDAAEVALYERSTFLCLTHINRKAAADGSKALFLQGDGELRTTEVSETVKHFKLSCMNNTTSLGGLSITTETFTALLCPFTECTHVLVVSVDPKVNVELHRLNVNAARRRFEQFLDSDEPTACAMREVL,not soluble
13,LRIYSADNLLIGEFGEERRDFIKIEEVPKSLKQAILAAEDDRFYQHYGVDYIGVLRAIYSNFKAGGAHQGASTITMQVARNFFLTKEKTLTRKFSEALLAFKIEHSLEKDQILELYINQIYLGQRSYGFSSAAQSYFGKQLTDINLAEAAMLAGLPKAPSRFNPIVNL,not soluble
14,MNRLKNMSKYSDAKELASLTLGKKTEYANQYDPSLLQPVPRSLNRNDLHLSATLPFQGCDIWTLYELSWLNQKGLPQVAIGEVSIPATSANLIESKSFKLYLNSYNQTRFASWDEVQTRLVHDLSACAGETVTVNVKSLNEYTAEPIVTMQGECIDDQDIEIANYEFDDALLQGAAQGEEVSEVLHSHLLKSNCLITNQPDWGSVEIAYHGAKMNREALLRYLVSFREHNEFHEQCVERIFTDIMRYCQPQSLTVYARYTRRGGLDINPFRSSHQSAPNHNQRMARQ,soluble
15,MSLHDLLMIDGLQYSNWSQDIFQQMQAGGLSAVHATIAYHENARETLSRLGEWNRRFETWPELIRPVRTASDIRLAHEEGRVGIFFGFQNCSPIEDDIALVEVFRQLGVFVMQLTYNNQSLLASGCYEREDNGISRFGRQVIAEMNRVGMLIDMSHSAERSTLEAIELSSRPVIISHANPASFHAAKRNKSDAVLRGIAESGGLLGFSTYPFHLKGASDCSLESFCDMVARTADLMGVEHIGIGTDLCQAQPLSVLEWMRNGRWSKDKDYGEGSRDNANWPAPLQWFRDSRDLRNIAQGLRARGFAEHDVGNIMGLNWLRLLETATTAQAEGHHHHHH,soluble
16,DVQLQASGGGLVQPGGSLRVSCAASGFTFSSYHMAWVRQAPGKGLEWVSTINPGDGSTYYADSVKGRFTISRDNAKNTLYLQMNSLKSEDTAVYYCAKYSGGALDAWGQGTQVTVSSQSEQKLISEEDLNHHHHH,soluble
17,YLLGAFKPACNISITFSDGKNRKQVPMKKENGQTALVPLFHSQDTISGKVCIEPYQGKKVEHNGVKVELLGQIANYSYDSFLLLTTVRELDVPGEIYERKTYPFEFPTVEMPYETYNGVNVRLRYVLKVTVTRGYAGSILEYQELVRNYAPLPDINNSIKMEVGIEDCLHIEFEYNKSKYHLKDVILGKIYFLLVRIKMKNMDLEIRRRESTGAGANTHVETETLAKFELMDGTPVRGESIPVRLFLAPYDLTPTHRNINNKFSVKYYLNLVLVDEEDRRYFKQQEITLYRLKEDASS,soluble
18,MGSDKIHHHHHHMNIIICDDRIDDRKNLSDLLSDYGEKKNYEFTITEYDSGEQLCEEQSALEACQLLFLDINMQGMDGLKTAMRIKEKYPKLPVVLVTAYMNYALDGYKVKASRFLLKDNLADTIEECMDDLIAEINKNRRILEFRFVEGTIKLYADDIIYIETELHKNVFYTEKGTFQIYKKLDELENEFKDMGFVRAHLSFLVNMRYITKISGYVMTLTTGKKIPVPKARYAQVKREYMLYKGEE,not soluble
19,MDNGTDSSTSKFVPEYRRTNFKNKGRFSADELRRRRDTQQVELRKAKRDEALAKRRNFIPPTDGADSDEEDESSVSADQQFYSQLQQELPQMTQQLNSDDMQEQLSATVKFRQILSREHRPPIDVVIQAGVVPRLVEFMRENQPEMLQLEAAWALTNIASGTSAQTKVVVDADAVPLFIQLLYTGSVEVKEQAIWALGNVAGDSTDYRDYVLQCNAMEPILGLFNSNKPSLIRTATWTLSNLCRGKKPQPDWSVVSQALPTLAKLIYSMDTETLVDACWAISYLSDGPQEAIQAVIDVRIPKRLVELLSHESTLVQTPALRAVGNIVTGNDLQTQVVINAGVLPALRLLLSSPKENIKKEACWTISNITAGNTEQIQAVIDANLIPPLVKLLEVAEYKTKKEACWAISNASSGGLQRPDIIRYLVSQGCIKPLCDLLEIADNRIIEVTLDALENILKMGEADKEARGLNINENADFIEKAGGMEKIFNCQQNENDKIYEKAYKIIETYFGEEEDAVDETMAPQNAGNTFG,soluble
20,MKWMCSICCAAVLLAGGAAQAEAVPNEPINWGFKRSVNHQPPDAGKQLNSLIEKYDAFYLGNTKEKTIYLTFDNGYENGYTPKVLDVLKKHRVTGTFFVTGHFVKDQPQLIKRMSDEGHIIGNHSFHHPDLTTKTADQIQDELDSVNEEVYKITGKQDNLYLRPPRGVFSEYVLKETKRLGYQTVFWSVAFVDWKINNQKGKKYAYDHMIKQAHPGAIYLLHTVSRDNAEALDDAITDLKKQGYTFKSIDDLMFEKEMRLPSL,soluble
21,GPLGSHENCQSPSMKRSRCTNYSFRTLTLSTAEYTKVVEFLAREAKVPRYTWVPTQVVSHILPTEGLERFLTAIKAGHDSVLFNANGIYTMGDMIREFEKHNDIFERIGIDSSKLSKYYEAFLSFYRIQEAMKLPK,soluble
22,MSSEFISKVDKEARRKAANILRDKFLNLVEQLKKGEPLVMEIPMRTLSNAIYDEKRKLLLLGEKKLRRNFLDLNEAKRFMQTVLMASIIYDALVSDEYPTIRDLYYRGKHSLLLKSIEGNKIVSEENTWDEQKESDSVIVDIEVFTSLLREEMLILSKEKGKVVGNLRIRSGNDVIDLSKTGHGAYAIEPTPDLIDFIDVDAEFVLVVEKDAVFQQLHRAGFWKQYKSILITSAGQPDRATRRFVRRLNEELKLPVYILTDADPYGWYIFSVFRIGSISLSYESERLATPDAKFLGVSMGDIFGNSRKKPYLSEAERKNYIIKAKDADIKRAEEIKNYEWFKTKAWQEEINTFLQRKAKLEIEAMASKGLKFLAFQYIPEKITNKDYIA,soluble
